Data as given in patent publication US20220090209.

Tests used:
[1] = biological target: HIF1β (ARNT), endogenous (Mus musculus) (UniProt P53762); details: 5mC at CpG (M.SssI); ChIP-qPCR in isogenic mouse ES cells
HIF2α-HIF1β heterodimer = HIF2α-HIF1β heterodimer (UniProt P97481+P53762); assay: MST; details: 5mC at CpG of RCGTG; 20 mM phosphate, 75 mM NaCl, 5 mM DTT, 0.05% Tween-20, pH 7.4, 25 C; scale: fold lower affinity
HIF1α-HIF1β heterodimer = HIF1α-HIF1β heterodimer (UniProt Q61221+P53762); assay: MST; details: 5mC at CpG of RCGTG; 20 mM phosphate, 75 mM NaCl, 5 mM DTT, 0.05% Tween-20, pH 7.4, 25 C; scale: fold lower affinity

| Substance | binding signal (fold reduction vs unmethylated) [1] | binding signal (HIF2α-HIF1β heterodimer) | binding signal (HIF1α-HIF1β heterodimer) |
| --- | --- | --- | --- |
| in vitro methylated human HIF binding region chr16:30,065,212-30,065,711 | 12.4 | – | – |
| methylated RCGTG ds oligonucleotide | – | 15 | 15 |
